T1: recombinant human activated Factor VII (FVIIa) (human, UniProt P08709 61-212; P08709 213-466, ten glutamate residues of the Gla domain may be gamma-carboxylated)
T1 construct: chains tethered by a disulfide bond; also called Factor VIIa; rFVIIa
T1 sequence 1: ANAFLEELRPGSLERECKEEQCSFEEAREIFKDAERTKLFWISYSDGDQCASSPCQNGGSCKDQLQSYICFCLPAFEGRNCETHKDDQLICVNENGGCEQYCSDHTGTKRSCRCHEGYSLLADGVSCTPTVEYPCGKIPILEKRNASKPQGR
T1 sequence 2: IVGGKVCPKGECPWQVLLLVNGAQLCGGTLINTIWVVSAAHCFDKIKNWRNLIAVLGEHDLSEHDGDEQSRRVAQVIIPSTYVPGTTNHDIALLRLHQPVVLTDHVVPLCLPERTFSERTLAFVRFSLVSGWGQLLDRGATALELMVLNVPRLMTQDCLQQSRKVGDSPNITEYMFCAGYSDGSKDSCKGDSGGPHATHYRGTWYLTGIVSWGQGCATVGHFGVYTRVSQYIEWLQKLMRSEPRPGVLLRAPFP

B1: VH SEQ ID NO 570 / VL SEQ ID NO 350 (antibody, IgG4, V domains shown)
VH: QVQLQESGPGLVKPSDTLSLTCAVSGYSISSDSAWSWIRQPPGKGLEWIGYIQYSGSTNYNPSLKSRVTMSRDTSKNQFSLKLSSVTAADTAVYYCARSVNYYGNSFAVGPWGQGTLVTVSS
VL: EIVLTQSPATLSLSPGERATLSCRASQGISDYLHWYQQKPGQAPRLLIKYTSQPATGIPARFSGSGSGTDFTLTISSLEPEDFAVYYCQNGHSFPLTFGAGTKLELK
notes: humanized 11F2; IgG4 S228P/kappa
B2: VH SEQ ID NO 570 / VL SEQ ID NO 406 (antibody, IgG4, V domains shown)
VH: QVQLQESGPGLVKPSDTLSLTCAVSGYSISSDSAWSWIRQPPGKGLEWIGYIQYSGSTNYNPSLKSRVTMSRDTSKNQFSLKLSSVTAADTAVYYCARSVNYYGNSFAVGPWGQGTLVTVSS
VL: EIVLTQSPATLSLSPGERATLSCRASQGVSDYLAWYQQKPGQAPRLLIKYASQPATGIPARFSGSGSGTDFTLTISSLEPEDFAVYYCQNGHSFPLTFGAGTKLEIK
notes: as for B1
B3: VH SEQ ID NO 570 / VL SEQ ID NO 366 (antibody, IgG4, V domains shown)
VH: QVQLQESGPGLVKPSDTLSLTCAVSGYSISSDSAWSWIRQPPGKGLEWIGYIQYSGSTNYNPSLKSRVTMSRDTSKNQFSLKLSSVTAADTAVYYCARSVNYYGNSFAVGPWGQGTLVTVSS
VL: EIVLTQSPATLSLSPGERATLSCRASQGLSDYLAWYQQKPGEAPRLLIKYASQPATGIPARFSGSGSGTDFTLTISSLEPEDFAVYYCQNGHSFPLTFGQGTKLEIK
notes: as for B1
B4: VH SEQ ID NO 570 / VL SEQ ID NO 414 (antibody, IgG4, V domains shown)
VH: QVQLQESGPGLVKPSDTLSLTCAVSGYSISSDSAWSWIRQPPGKGLEWIGYIQYSGSTNYNPSLKSRVTMSRDTSKNQFSLKLSSVTAADTAVYYCARSVNYYGNSFAVGPWGQGTLVTVSS
VL: EIVLTQSPATLSLSPGERATLSCRASQGVSDYLAWYQQKPGQAPRLLIKYASQPATGIPARFSGSGSGTDFTLTISSLEPEDFAVYYCQNGHSFPLTFGQGTKLEIK
notes: as for B1
B5: VH SEQ ID NO 570 / VL SEQ ID NO 358 (antibody, IgG4, V domains shown)
VH: QVQLQESGPGLVKPSDTLSLTCAVSGYSISSDSAWSWIRQPPGKGLEWIGYIQYSGSTNYNPSLKSRVTMSRDTSKNQFSLKLSSVTAADTAVYYCARSVNYYGNSFAVGPWGQGTLVTVSS
VL: EIVLTQSPATLSLSPGERATLSCRASQGISDYLHWYQQKPGQAPRLLIKYTSQPATGIPARFSGSGSGTDFTLTISSLEPEDFAVYYCQNGHSFPLTFGQGTKLEIK
notes: as for B1
B6: VH SEQ ID NO 570 / VL SEQ ID NO 382 (antibody, IgG4, V domains shown)
VH: QVQLQESGPGLVKPSDTLSLTCAVSGYSISSDSAWSWIRQPPGKGLEWIGYIQYSGSTNYNPSLKSRVTMSRDTSKNQFSLKLSSVTAADTAVYYCARSVNYYGNSFAVGPWGQGTLVTVSS
VL: EIVLTQSPATLSLSPGERATLSCRASQGLSDYLHWYQQKPGEAPRLLIKYASQPATGIPARFSGSGSGTDFTLTISSLEPEDFAVYYCQNGHSFPLTFGQGTKLEIK
notes: as for B1
B7: VH SEQ ID NO 570 / VL SEQ ID NO 390 (antibody, IgG4, V domains shown)
VH: QVQLQESGPGLVKPSDTLSLTCAVSGYSISSDSAWSWIRQPPGKGLEWIGYIQYSGSTNYNPSLKSRVTMSRDTSKNQFSLKLSSVTAADTAVYYCARSVNYYGNSFAVGPWGQGTLVTVSS
VL: EIVLTQSPATLSLSPGERATLSCRASQGVSDYLAWYQQKPGEAPRLLIKYASQPATGIPARFSGSGSGTDFTLTISSLEPEDFAVYYCQNGHSFPLTFGQGTKLEIK
notes: as for B1
B8: VH SEQ ID NO 570 / VL SEQ ID NO 398 (antibody, IgG4, V domains shown)
VH: QVQLQESGPGLVKPSDTLSLTCAVSGYSISSDSAWSWIRQPPGKGLEWIGYIQYSGSTNYNPSLKSRVTMSRDTSKNQFSLKLSSVTAADTAVYYCARSVNYYGNSFAVGPWGQGTLVTVSS
VL: EIVLTQSPATLSLSPGERATLSCRASQGVSDYLAWYQQKPGEAPRLLIKYTSQPATGIPARFSGSGSGTDFTLTISSLEPEDFAVYYCQNGHSFPLTFGQGTKLEIK
notes: as for B1

The Kd is the constant that tells how readily two partners part at equilibrium.

For the test, the target named is T1, recombinant human activated Factor VII …. Kind of test: BLI (Fortebio). Background: Biolayer interferometry detects binding as a change in optical thickness at a sensor tip.
Turning to B1, the Kd is 1 nM.

In the case of B2, the dissociation constant Kd stood at 20 nM.

B3: the Kd came out at 14 nM.

For B4, the dissociation constant (Kd) worked out at 21 nM.

In the case of B5, the equilibrium dissociation constant (Kd) came out at 0.85 nM.

B6: the Kd worked out at 1.3 nM.

For the molecule B7, the Kd turned out to be 48 nM.

Take B8: the dissociation constant Kd came to 29 nM.

The record behind these values is patent US20220064329A1 (Novo Nordisk, published 2022).
